Consider three molecules from publication PMC8424595 (The Journal of Biological Chemistry, 2021).

Test [1] concerns the target Ssa1 (Saccharomyces cerevisiae, UniProt P10591). In words: fluorescence polarization, displacement of ATP-FAM. Format: binding. The conditions noted are these: 50 uM ATP, 1 uM Ssa1, 20 nM ATP-FAM, pH 7.5, 25 °C. Background: Fluorescence polarisation rises when a labelled molecule tumbles more slowly, as on binding a larger partner.
Test [2] deals with T1, Msi3 (Candida albicans, UniProt Q96VB9).
T1 sequence (Q96VB9 1-701): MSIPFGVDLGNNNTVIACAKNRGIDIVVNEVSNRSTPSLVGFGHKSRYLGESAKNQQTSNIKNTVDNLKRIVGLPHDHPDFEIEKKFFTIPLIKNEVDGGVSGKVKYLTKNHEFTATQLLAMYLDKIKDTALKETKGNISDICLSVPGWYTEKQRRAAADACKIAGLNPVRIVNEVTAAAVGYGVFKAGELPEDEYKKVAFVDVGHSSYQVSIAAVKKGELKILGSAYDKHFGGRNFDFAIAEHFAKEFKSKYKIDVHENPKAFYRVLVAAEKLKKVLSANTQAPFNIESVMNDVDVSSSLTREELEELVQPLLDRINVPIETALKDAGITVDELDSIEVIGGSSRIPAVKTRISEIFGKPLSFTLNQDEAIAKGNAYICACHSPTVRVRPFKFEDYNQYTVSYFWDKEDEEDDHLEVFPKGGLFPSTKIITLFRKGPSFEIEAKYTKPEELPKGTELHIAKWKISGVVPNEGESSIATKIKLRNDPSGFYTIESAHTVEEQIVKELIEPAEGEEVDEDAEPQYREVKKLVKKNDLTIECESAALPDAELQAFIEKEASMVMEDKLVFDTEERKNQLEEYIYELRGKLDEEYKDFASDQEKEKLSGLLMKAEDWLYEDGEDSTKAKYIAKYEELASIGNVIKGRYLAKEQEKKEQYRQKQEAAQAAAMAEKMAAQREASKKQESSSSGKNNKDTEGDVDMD
In words: limited trypsin digest. Format: binding. As to conditions: 1 mM ATP, pH 7.5, 10 mM Mg(OAc)2, 25 °C.

Test [3] concerns the target Ssa1, the major Hsp70 in the cytosol of S. cerevisiae (S. cerevisiae, UniProt P10591 1-642). The experiment in a line: native gel or EMSA. (Mobility shift assays separate free from complexed probe on a gel.)
Test [4] has as its target Msi3-Ssa1 complex (Candida albicans | S. cerevisiae, UniProt Q96VB9 1-701; P10591 1-642). In words: native gel or EMSA.
Test [5] addresses T2, Msi3 I164D (Candida albicans, UniProt Q96VB9 1-701, I164D).
T2 sequence (looked up): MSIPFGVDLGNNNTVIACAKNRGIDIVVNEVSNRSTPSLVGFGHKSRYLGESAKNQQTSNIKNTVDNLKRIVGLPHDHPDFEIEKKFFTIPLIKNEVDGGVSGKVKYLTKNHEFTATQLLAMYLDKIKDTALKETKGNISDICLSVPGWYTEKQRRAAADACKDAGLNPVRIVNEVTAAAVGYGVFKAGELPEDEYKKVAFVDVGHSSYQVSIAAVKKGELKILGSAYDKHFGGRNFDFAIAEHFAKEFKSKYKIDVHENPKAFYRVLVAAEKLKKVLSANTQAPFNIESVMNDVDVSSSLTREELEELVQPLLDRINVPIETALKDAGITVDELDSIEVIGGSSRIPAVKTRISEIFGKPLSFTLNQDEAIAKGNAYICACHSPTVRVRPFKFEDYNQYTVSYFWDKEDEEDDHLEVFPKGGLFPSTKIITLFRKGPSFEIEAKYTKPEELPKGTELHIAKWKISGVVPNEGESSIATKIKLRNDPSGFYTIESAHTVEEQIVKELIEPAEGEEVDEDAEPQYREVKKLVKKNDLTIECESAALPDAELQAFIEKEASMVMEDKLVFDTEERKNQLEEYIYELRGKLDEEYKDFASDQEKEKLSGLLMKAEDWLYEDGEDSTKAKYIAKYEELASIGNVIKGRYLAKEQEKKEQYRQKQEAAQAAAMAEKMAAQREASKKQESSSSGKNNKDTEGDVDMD
The experiment in a line: fluorescence polarisation.

Test [6] addresses T3, Msi3 R235E (Candida albicans, UniProt Q96VB9 1-701, R235E).
T3 sequence (looked up): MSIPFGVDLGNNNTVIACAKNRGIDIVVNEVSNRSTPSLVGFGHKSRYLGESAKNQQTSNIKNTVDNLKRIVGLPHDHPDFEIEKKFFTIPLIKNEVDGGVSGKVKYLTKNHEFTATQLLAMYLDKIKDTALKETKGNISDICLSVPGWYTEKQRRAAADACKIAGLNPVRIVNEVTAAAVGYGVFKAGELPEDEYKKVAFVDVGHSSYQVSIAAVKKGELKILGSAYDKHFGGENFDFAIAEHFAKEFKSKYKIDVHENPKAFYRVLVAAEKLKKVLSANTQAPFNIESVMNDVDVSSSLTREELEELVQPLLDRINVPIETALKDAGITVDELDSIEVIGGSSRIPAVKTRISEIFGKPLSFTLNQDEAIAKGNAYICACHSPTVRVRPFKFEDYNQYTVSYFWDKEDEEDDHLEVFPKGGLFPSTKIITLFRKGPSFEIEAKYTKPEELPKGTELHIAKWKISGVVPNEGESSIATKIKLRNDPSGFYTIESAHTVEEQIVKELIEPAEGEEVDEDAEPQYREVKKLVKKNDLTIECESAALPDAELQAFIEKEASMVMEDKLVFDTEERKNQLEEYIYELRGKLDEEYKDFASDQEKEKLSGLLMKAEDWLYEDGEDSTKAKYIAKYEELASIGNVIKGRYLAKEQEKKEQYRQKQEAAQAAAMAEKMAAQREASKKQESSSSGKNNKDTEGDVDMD
In words: fluorescence polarisation.

Test [7] deals with T4, Msi3, the sole Hsp110 in Candida albicans, wild type (Candida albicans, UniProt Q96VB9 1-701).
T4 sequence (looked up): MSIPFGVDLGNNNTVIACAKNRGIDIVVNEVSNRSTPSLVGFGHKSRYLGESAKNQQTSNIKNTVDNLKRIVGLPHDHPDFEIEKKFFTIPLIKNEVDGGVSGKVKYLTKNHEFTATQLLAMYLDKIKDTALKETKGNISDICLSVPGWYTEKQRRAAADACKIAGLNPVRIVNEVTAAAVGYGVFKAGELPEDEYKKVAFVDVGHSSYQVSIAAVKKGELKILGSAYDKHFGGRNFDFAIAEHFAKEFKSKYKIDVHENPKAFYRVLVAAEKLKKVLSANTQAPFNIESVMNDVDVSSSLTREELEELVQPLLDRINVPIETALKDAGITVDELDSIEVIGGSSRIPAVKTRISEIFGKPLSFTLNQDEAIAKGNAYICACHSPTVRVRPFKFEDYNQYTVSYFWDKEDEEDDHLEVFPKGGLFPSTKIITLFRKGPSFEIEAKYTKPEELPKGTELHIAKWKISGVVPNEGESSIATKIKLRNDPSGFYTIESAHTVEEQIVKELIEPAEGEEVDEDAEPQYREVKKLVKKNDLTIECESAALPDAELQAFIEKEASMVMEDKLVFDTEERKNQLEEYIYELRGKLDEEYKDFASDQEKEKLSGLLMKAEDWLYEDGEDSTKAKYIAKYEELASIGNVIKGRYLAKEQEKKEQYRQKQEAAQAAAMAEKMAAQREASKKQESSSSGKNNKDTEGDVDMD
The experiment in a line: fluorescence polarisation.

Where no end group is shown, it is not given here. fluorescein = fluorescein label at the N-terminus

Sequence of Ssa1, the major Hsp70 in the cytosol of S. cerevisiae (P10591 whole entry): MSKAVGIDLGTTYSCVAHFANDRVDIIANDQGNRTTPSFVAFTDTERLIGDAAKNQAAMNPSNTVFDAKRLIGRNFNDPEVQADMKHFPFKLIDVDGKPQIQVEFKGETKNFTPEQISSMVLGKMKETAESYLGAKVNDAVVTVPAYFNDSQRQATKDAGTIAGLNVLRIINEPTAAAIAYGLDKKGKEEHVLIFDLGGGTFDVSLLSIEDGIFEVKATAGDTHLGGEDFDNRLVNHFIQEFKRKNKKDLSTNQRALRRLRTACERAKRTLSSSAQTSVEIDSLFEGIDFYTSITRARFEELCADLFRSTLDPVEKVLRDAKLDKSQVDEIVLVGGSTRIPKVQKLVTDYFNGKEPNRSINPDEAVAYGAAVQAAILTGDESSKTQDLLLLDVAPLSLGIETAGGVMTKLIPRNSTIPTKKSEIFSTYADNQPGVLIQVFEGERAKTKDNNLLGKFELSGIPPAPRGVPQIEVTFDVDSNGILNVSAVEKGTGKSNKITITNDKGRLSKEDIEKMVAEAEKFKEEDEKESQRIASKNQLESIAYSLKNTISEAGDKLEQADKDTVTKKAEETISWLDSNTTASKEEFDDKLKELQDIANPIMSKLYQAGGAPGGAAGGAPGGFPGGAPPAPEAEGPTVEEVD
Sequence of Msi3-Ssa1 complex (P10591 whole entry, one chain of several): as the sequence (P10591 whole entry) above
Sequence of Ssa1 (P10591 2-642): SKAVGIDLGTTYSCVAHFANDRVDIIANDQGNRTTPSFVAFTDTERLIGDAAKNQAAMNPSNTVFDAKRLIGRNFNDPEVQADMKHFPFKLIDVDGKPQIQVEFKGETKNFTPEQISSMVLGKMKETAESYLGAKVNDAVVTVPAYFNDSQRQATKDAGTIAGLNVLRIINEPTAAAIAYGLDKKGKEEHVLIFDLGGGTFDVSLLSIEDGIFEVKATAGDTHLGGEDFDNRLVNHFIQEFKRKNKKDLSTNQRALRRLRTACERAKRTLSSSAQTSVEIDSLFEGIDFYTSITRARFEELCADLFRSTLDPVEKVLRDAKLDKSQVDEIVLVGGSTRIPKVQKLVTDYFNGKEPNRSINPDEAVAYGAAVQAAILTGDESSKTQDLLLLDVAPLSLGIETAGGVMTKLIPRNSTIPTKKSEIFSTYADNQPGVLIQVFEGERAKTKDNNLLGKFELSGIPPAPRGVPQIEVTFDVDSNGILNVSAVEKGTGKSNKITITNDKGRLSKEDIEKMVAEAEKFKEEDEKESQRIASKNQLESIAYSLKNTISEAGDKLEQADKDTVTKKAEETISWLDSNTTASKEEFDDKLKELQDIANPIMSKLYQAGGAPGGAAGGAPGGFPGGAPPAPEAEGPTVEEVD

As for `Nc1ncnc2c1ncn2[C@@H]1O[C@H](COP(=O)(O)OP(=O)(O)OP(=O)(O)O)[C@@H](O)[C@H]1O` [ATP], the “fluorescence polarization, displacement of ATP-FAM” value in test [1] is reported as “the bound ATP-FAM was slowly replaced by the unlabeled ATP”. Moreover, the “limited trypsin digest (ATP-induced conformational change)” value in test [2] is “two signature proteolytic bands were observed in the presence of ATP for the WT Msi3”.
On to fluorescein-NRLLLTG [NR peptide], for which the binding result in test [3] and in test [4] was “binds” throughout.
As for fluorescein-VYDFFVWLHYY [TRP2_181 peptide], the binding result in test [5], in test [6] and in test [7] was “binds” each time.
